# Experimental data taken from publication PMC5705280.
# Target: Cul3 (Cullin3) (UniProt Q9JLV5)
# Assay: co-IP
# Conditions: reference: PHLPP2 wild type; sites S1119,S1210
substance,measurement,value
PHLPP2 (from UniProt Q6ZVD8) PHLPP2-2A (S1119A/S1210A),binding against the reference,weaker
